Test results: US20180346602A1
Residue numbers refer to the chain shown, from its start.

B1: anti-variant (human) Fc-region antibody M1.3.17 (antibody, V domains shown)
VH: EVKLLESGGGLVQPGGSLKLSCAASGIDFRRYWMNWVRQAPGKGLEWIGEIDPDSSTINYTPSLKDKFIISRDNAKNTMYLQMRKVRSEDTALYYCARPYDYGAWFAYWGQGTLVTVSA
VL: QAVVTQESALTTSPGETVTLTCRSTTGAVTTSNYANWVQEKPDHLFTGLIGGTNKRAPGVPARFSGSLIGDKAALTITGAQTEDEAIYFCALWYSDHWVFGGGTKLTVL
B2: anti-variant (human) Fc-region antibody M1.7.24 (antibody, V domains shown)
VH: B1 VH with I27F, R30S, D52T, M79L, R84I, A97V, Y108S
VL: B1 VL with T25S, D96N
B3: anti-AAA variant Fc-region antibody M1.6.22 (antibody, V domains shown)
VH: EVQLVESGGDLVKPGGSLKLSCAASGFTFSSYGMSWVRQTPDKRLEWVATISSGGSYIYYPDSVKGRFTISRDNAKNTLYLQMSSLKSEDTAMYYCARLGMITTGYAMDYWGQGTSVTVSS
VL: DVLMTQTPLSLPVSLGDQASISCRSSQTIVHSTGHTYLEWFLQKPGQSPKLLIYKVSNRFSGVPDRFSGSGSGTDFTLKISRVEAEDLGVYYCFQGSHVPYTFGGGTKLEIK

These binders were tested against anti-IGF-1R antibody (IgG1 subclass with mutations I253A/H310A/H435A) [IgG part: P01857] (assay: sandwich ELISA assay A; capture M1.7.10-Bi; antibody 3 at 2 ng/mL).

| Binder | signal [OD405 nm] |
| --- | --- |
| B1 | 0.042 OD405 nm |
| B2 | 0.048 OD405 nm |
| B3 | 0.199 OD405 nm |

Each binder was assayed against anti-P-Selectin antibody (IgG4 subclass with mutations S228P/L235E) [IgG part: P01861] (assay: sandwich ELISA assay A; capture M1.7.10-Bi; antibody 4 at 50 ng/mL).

| Binder | signal [OD405 nm] |
| --- | --- |
| B1 | 0.037 OD405 nm |
| B2 | 0.049 OD405 nm |
| B3 | 0.052 OD405 nm |

Each binder was assayed against anti-VEGF/ANG2 antibody (IgG1 subclass with mutations P329G/L234A/L235A) [IgG part: P01857] (assay: sandwich ELISA assay A; capture M1.7.10-Bi; antibody 2 at 3 ng/mL).

| Binder | signal [OD405 nm] |
| --- | --- |
| B1 | 1.22 OD405 nm |
| B2 | 1.73 OD405 nm |
| B3 | 0.039 OD405 nm |

What follows are binders tested against anti-VEGF/ANG2 antibody (IgG1 subclass with mutations P329G/L234A/L235A/I253A/H310A/H435A) (human) [IgG part: P01857] (assay: sandwich ELISA assay C; capture on SA plate; tracer FcγRI-Dig; analyte 13 ng/mL).

| Binder | signal [OD405 nm] |
| --- | --- |
| B1 | 1.14 OD405 nm |
| B2 | 0.085 OD405 nm |
| B3 | 0.064 OD405 nm |

The binders below were run against anti-P-Selectin antibody (IgG4 subclass with mutations S228P/L235E) (human) [IgG part: P01861] in the same assay as above.

| Binder | signal [OD405 nm] |
| --- | --- |
| B1 | 1.16 OD405 nm |
| B2 | 0.066 OD405 nm |
| B3 | 0.052 OD405 nm |

Each binder was assayed against anti-IGF-1R antibody (IgG1 subclass with mutations I253A/H310A/H435A) (human) [IgG part: P01857] in the same assay as above.

| Binder | signal [OD405 nm] |
| --- | --- |
| B1 | 1.21 OD405 nm |
| B2 | 0.058 OD405 nm |
| B3 | 0.175 OD405 nm |

These binders were tested against anti-VEGF/ANG2 antibody (IgG1 subclass with mutations P329G/L234A/L235A) (human) [IgG part: P01857] in the same assay as above.

| Binder | signal [OD405 nm] |
| --- | --- |
| B1 | 1.23 OD405 nm |
| B2 | 0.06 OD405 nm |
| B3 | 0.061 OD405 nm |

Each binder was assayed against anti-VEGF/ANG2 antibody (IgG1 subclass with mutations P329G/L234A/L235A/I253A/H310A/H435A) (human) [IgG part: P01857] (assay: sandwich ELISA assay B; capture on SA plate; tracer M1.7.10-Dig; analyte 25 ng/mL).

| Binder | signal [OD405 nm] |
| --- | --- |
| B1 | 0.035 OD405 nm |
| B2 | 0.047 OD405 nm |
| B3 | 0.044 OD405 nm |

The binders below were run against anti-VEGF/ANG2 antibody (IgG1 subclass with mutations P329G/L234A/L235A) (human) [IgG part: P01857] in the same assay as above.

| Binder | signal [OD405 nm] |
| --- | --- |
| B1 | 0.213 OD405 nm |
| B2 | 3.16 OD405 nm |
| B3 | 0.092 OD405 nm |

These binders were tested against anti-VEGF/ANG2 antibody (IgG1 subclass with mutations P329G/L234A/L235A/I253A/H310A/H435A) [IgG part: P01857] (assay: sandwich ELISA assay A; capture M1.7.10-Bi; antibody 1 at 13 ng/mL).

| Binder | signal [OD405 nm] |
| --- | --- |
| B1 | 0.04 OD405 nm |
| B2 | 0.047 OD405 nm |
| B3 | 0.061 OD405 nm |

What follows are binders tested against anti-VEGF/ANG2 antibody (IgG1 subclass with mutations P329G/L234A/L235A/I253A/H310A/H435A) [IgG part: P01857] (assay: sandwich ELISA assay A; capture M1.7.10-Bi; antibody 1 at 2 ng/mL).

| Binder | signal [OD405 nm] |
| --- | --- |
| B1 | 0.043 OD405 nm |
| B2 | 0.042 OD405 nm |
| B3 | 0.055 OD405 nm |

The binders below were run against anti-IGF-1R antibody (IgG1 subclass with mutations I253A/H310A/H435A) [IgG part: P01857] (assay: sandwich ELISA assay A; capture M1.7.10-Bi; antibody 3 at 3 ng/mL).

| Binder | signal [OD405 nm] |
| --- | --- |
| B1 | 0.036 OD405 nm |
| B2 | 0.045 OD405 nm |
| B3 | 0.414 OD405 nm |

The binders below were run against anti-P-Selectin antibody (IgG4 subclass with mutations S228P/L235E) [IgG part: P01861] (assay: sandwich ELISA assay A; capture M1.7.10-Bi; antibody 4 at 13 ng/mL).

| Binder | signal [OD405 nm] |
| --- | --- |
| B1 | 0.038 OD405 nm |
| B2 | 0.046 OD405 nm |
| B3 | 0.05 OD405 nm |

The binders below were run against anti-VEGF/ANG2 antibody (wild-type IgG1 subclass) [IgG part: P01857] (assay: sandwich ELISA assay A; capture M1.7.10-Bi; antibody 5 at 2 ng/mL).

| Binder | signal [OD405 nm] |
| --- | --- |
| B1 | 0.034 OD405 nm |
| B2 | 0.038 OD405 nm |
| B3 | 0.047 OD405 nm |

Each binder was assayed against anti-VEGF/ANG2 antibody (IgG1 subclass with mutations P329G/L234A/L235A/I253A/H310A/H435A) (human) [IgG part: P01857] (assay: sandwich ELISA assay C; capture on SA plate; tracer FcγRI-Dig; analyte 100 ng/mL).

| Binder | signal [OD405 nm] |
| --- | --- |
| B1 | 1.19 OD405 nm |
| B2 | 0.05 OD405 nm |
| B3 | 0.079 OD405 nm |

The binders below were run against anti-P-Selectin antibody (IgG4 subclass with mutations S228P/L235E) (human) [IgG part: P01861] in the same assay as above.

| Binder | signal [OD405 nm] |
| --- | --- |
| B1 | 1.17 OD405 nm |
| B2 | 0.08 OD405 nm |
| B3 | 0.069 OD405 nm |

Each binder was assayed against anti-IGF-1R antibody (IgG1 subclass with mutations I253A/H310A/H435A) (human) [IgG part: P01857] in the same assay as above.

| Binder | signal [OD405 nm] |
| --- | --- |
| B1 | 1.2 OD405 nm |
| B2 | 0.11 OD405 nm |
| B3 | 2.1 OD405 nm |

Each binder was assayed against anti-VEGF/ANG2 antibody (IgG1 subclass with mutations P329G/L234A/L235A) (human) [IgG part: P01857] in the same assay as above.

| Binder | signal [OD405 nm] |
| --- | --- |
| B1 | 1.22 OD405 nm |
| B2 | 0.082 OD405 nm |
| B3 | 0.076 OD405 nm |

What follows are binders tested against anti-VEGF/ANG2 antibody (IgG1 subclass with mutations P329G/L234A/L235A) [IgG part: P01857] (assay: sandwich ELISA assay A; capture M1.7.10-Bi; antibody 2 at 13 ng/mL).

| Binder | signal [OD405 nm] |
| --- | --- |
| B1 | 2.7 OD405 nm |
| B2 | 2.52 OD405 nm |
| B3 | 0.051 OD405 nm |

Each binder was assayed against anti-VEGF/ANG2 antibody (IgG1 subclass with mutations P329G/L234A/L235A/I253A/H310A/H435A) (human) [IgG part: P01857] (assay: sandwich ELISA assay C; capture on SA plate; tracer FcγRI-Dig; analyte 50 ng/mL).

| Binder | signal [OD405 nm] |
| --- | --- |
| B1 | 1.17 OD405 nm |
| B2 | 0.084 OD405 nm |
| B3 | 0.077 OD405 nm |

The binders below were run against anti-P-Selectin antibody (IgG4 subclass with mutations S228P/L235E) (human) [IgG part: P01861] in the same assay as above.

| Binder | signal [OD405 nm] |
| --- | --- |
| B1 | 1.15 OD405 nm |
| B2 | 0.066 OD405 nm |
| B3 | 0.054 OD405 nm |

What follows are binders tested against anti-IGF-1R antibody (IgG1 subclass with mutations I253A/H310A/H435A) (human) [IgG part: P01857] in the same assay as above.

| Binder | signal [OD405 nm] |
| --- | --- |
| B1 | 1.21 OD405 nm |
| B2 | 0.095 OD405 nm |
| B3 | 1.06 OD405 nm |

These binders were tested against anti-VEGF/ANG2 antibody (IgG1 subclass with mutations P329G/L234A/L235A) (human) [IgG part: P01857] in the same assay as above.

| Binder | signal [OD405 nm] |
| --- | --- |
| B1 | 1.21 OD405 nm |
| B2 | 0.094 OD405 nm |
| B3 | 0.057 OD405 nm |

These binders were tested against anti-VEGF/ANG2 antibody (wild-type IgG1 subclass) [IgG part: P01857] (assay: sandwich ELISA assay A; capture M1.7.10-Bi; antibody 5 at 0 ng/mL (blank)).

| Binder | signal [OD405 nm] |
| --- | --- |
| B1 | 0.036 OD405 nm |
| B2 | 0.041 OD405 nm |
| B3 | 0.042 OD405 nm |

These binders were tested against anti-VEGF/ANG2 antibody (wild-type IgG1 subclass) [IgG part: P01857] (assay: sandwich ELISA assay A; capture M1.7.10-Bi; antibody 5 at 6 ng/mL).

| Binder | signal [OD405 nm] |
| --- | --- |
| B1 | 0.036 OD405 nm |
| B2 | 0.042 OD405 nm |
| B3 | 0.046 OD405 nm |
